Reference: WO1999010379A1 (dated 1999)
Values belong to the binder of their own block, whether it stands above or below them.

What was measured:
[1] = target: T1, monoclonal antibody SM3 (secreted by the hybridoma HSM3, ECACC accession no. 87010701); assay: inhibition ELISA: SM3 at 1 ug/ml incubated with increasing peptide, binding to the fusion protein with seven MUC1 tandem repeats
T1 construct: The general ELISA method detects it with goat anti-mouse (Fc specific) conjugate; also called SM3 antibody

[2] = target: T1, monoclonal antibody SM3 (secreted by …); assay: inhibition ELISA of SM3 (1 ug/ml) binding to the fusion protein with seven MUC1 tandem repeats

T1 sequence (VH, as listed by the source limits assumed, chain 1 of 2): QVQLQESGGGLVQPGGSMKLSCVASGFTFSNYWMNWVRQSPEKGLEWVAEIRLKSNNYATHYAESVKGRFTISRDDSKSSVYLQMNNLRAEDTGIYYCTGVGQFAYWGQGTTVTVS
T1 sequence (VL, as listed by the source limits assumed, chain 2 of 2): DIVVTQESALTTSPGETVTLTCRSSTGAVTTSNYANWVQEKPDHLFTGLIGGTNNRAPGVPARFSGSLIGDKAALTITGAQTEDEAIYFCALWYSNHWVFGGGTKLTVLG

Apparent Ka [1]: ~24 µM
IC50 [1]: ~30 mg/L
B1: MUC1 peptide Thr-Ser-Ala-Pro-Asp-Thr-Arg-Pro-Ala-Pro-Gly-Ser-Thr ("the crystal peptide") (peptide)
peptide: TSAPDTRPAPGST
notes: Non-glycosylated peptide; also called MUCl peptide; MUCl peptide antigen

Binder: ARPTGTSDPTPAS
binding result [2]: no binding (tested: approximately 30μg/ml)
